Results reported in the supplement of paper PMC5998384.

Experiments:
HeLa Kyoto [1] = experiment: solubility in G1/S (NP-40 vs SDS abundance) (log2 ratio); higher = more soluble; details: cell cycle stage: G1/S
HeLa Kyoto [2] = experiment: melting temperature (median over replicates), in situ; higher = more thermally stable
HeLa Kyoto [3] = experiment: solubility change mitosis vs G1/S (difference of NP-40 vs SDS log2 ratios) (log2 ratio difference); higher = more soluble in mitosis
HeLa Kyoto [4] = experiment: thermal stability score vs G1/S (z-score of summed log2 fold changes over temperatures); higher = more thermally stable than in G1/S
[5] = cell cycle stage: early G1 (4.5 h after nocodazole release)
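Throughout, for melting temperature (median over replicates), in situ: HeLa Kyoto cells synchronized by double thymidine or nocodazole block, proteins quantified by TMT10plex mass spectrometry, three independent biological replicates.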
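Throughout, for solubility change mitosis vs G1/S (difference of NP-40 vs SDS log2 ratios): synchronized HeLa Kyoto cells (double thymidine block for G1/S, nocodazole release for mitosis), protein amounts in NP-40 versus SDS lysates quantified by mass spectrometry, three biological replicates.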
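Throughout, for solubility in G1/S (NP-40 vs SDS abundance): HeLa Kyoto cells arrested at G1/S by double thymidine block, proteins quantified by TMT10plex mass spectrometry in mild NP-40 versus SDS extracts, three biological replicates.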
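Throughout, for thermal stability score vs G1/S (z-score of summed log2 fold changes over temperatures): synchronized HeLa Kyoto cells, proteins quantified by TMT10plex mass spectrometry, three biological replicates, mitosis taken 0.5 h after nocodazole release, G1/S directly after double thymidine block.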

Row | Sequence | solubility in G1/S (log2) (HeLa Kyoto [1]) | melting temperature (HeLa Kyoto [2]; cell cycle stage: G1/S) [°C] | melting temperature (HeLa Kyoto [2]; cell cycle stage: mitosis) [°C] | solubility change mitosis (log2) (HeLa Kyoto [3]) | thermal stability score (HeLa Kyoto [4]; [5]) | thermal stability score (HeLa Kyoto [4]; cell cycle stage: mitosis)
1 | MFGAAGRQPIGAPAAGNSWHFSRTMEELVHDLVSALEESSEQARGGFAETGDHSRSISCPLKRQARKRRGRKRRSYNVHHPWETGHCLSEGSDSSLEEPSKDYRENHNNNKKDHSDSDDQMLVAKRRPSSNLNNNVRGKRPLWHESDFAVDNVGNRTLRRRRKVKRMAVDLPQDISNKRTMTQPPEGCRDQDMDSDRAYQYQEFTKNKVKKRKLKIIRQGPKIQDEGVVLESEETNQTNKDKMECEEQKVSDELMSESDSSSLSSTDAGLFTNDEGRQGDDEQSDWFYEKESGGACGITGVVPWWEKEDPTELDKNVPDPVFESILTGSFPLMSHPSRRGFQARLSRLHGMSSKNIKKSGGTPTSMVPIPGPVGNKRMVHFSPDSHHHDHWFSPGARTEHDQHQLLRDNRAERGHKKNCSVRTASRQTSMHLGSLCTGDIKRRRKAAPLPGPTTAGFVGENAQPILENNIGNRMLQNMGWTPGSGLGRDGKGISEPIQAMQRPKGLGLGFPLPKSTSATTTPNAGKSA [GPATCH2] | 0.0278 | 51.7 | 53 | -0.0138 | -0.791 | -1.01
2 | MFGAGDEDDTDFLSPSGGARLASLFGLDQAAAGHGNEFFQYTAPKQPKKGQGTAATGNQATPKTAPATMSTPTILVATAVHAYRYTNGQYVKQGKFGAAVLGNHTAREYRILLYISQQQPVTVARIHVNFELMVRPNNYSTFYDDQRQNWSIMFESEKAAVEFNKQVCIAKCNSTSSLDAVLSQDLIVADGPAVEVGDSLEVAYTGWLFQNHVLGQVFDSTANKDKLLRLKLGSGKVIKGWEDGMLGMKKGGKRLLIVPPACAVGSEGVIGWTQATDSILVFEVEVRRVKFARDSGSDGHSVSSRDSAAPSPIPGADNLSADPVVSPPTSIPFKSGEPALRTKSNSLSEQLAINTSPDAVKAKLISRMAKMGQPMLPILPPQLDSNDSEIEDVNTLQGGGQPVVTPSVQPSLHPAHPALPQMTSQAPQPSVTGLQAPSAALMQVSSLDSHSAVSGNAQSFQPYAGMQAYAYPQASAVTSQLQPVRPLYPAPLSQPPHFQGSGDMASFLMTEARQHNTEIRMAVSKVADKMDHLMTKVEELQKHSAGNSMLIPSMSVTMETSMIMSNIQRIIQENERLKQEILEKSNRIEEQNDKISELIERNQRYVEQSNLMMEKRNNSLQTATENTQARVLHAEQEKAKVTEELAAATAQVSHLQLKMTAHQKKETELQMQLTESLKETDLLRGQLTKVQAKLSELQETSEQAQSKFKSEKQNRKQLELKVTSLEEELTDLRVEKESLEKNLSERKKKSAQERSQAEEEIDEIRKSYQEELDKLRQLLKKTRVSTDQAAAEQLSLVQAELQTQWEAKCEHLLASAKDEHLQQYQEVCAQRDAYQQKLVQLQEKCLALQAQITALTKQNEQHIKELEKNKSQMSGVEAAASDPSEKVKKIMNQVFQSLRREFELEESYNGRTILGTIMNTIKMVTLQLLNQQEQEKEESSSEEEEEKAEERPRRPSQEQSASASSGQPQAPLNRERPESPMVPSEQVVEEAVPLPPQALTTSQDGHRRKGDSEAEALSEIKDGSLPPELSCIPSHRVLGPPTSIPPEPLGPVSMDSECEESLAASPMAAKPDNPSGKVCVREVAPDGPLQESSTRLSLTSDPEEGDPLALGPESPGEPQPPQLKKDDVTSSTGPHKELSSTEAGSTVAGAALRPSHHSQRSSLSGDEEDELFKGATLKALRPKAQPEEEDEDEVSMKGRPPPTPLFGDDDDDDDIDWLG [FKBP15] | 0.0656 | 49.6 | 50 | -0.0387 | -0.146 | 1.12
3 | MFHLRTCAAKLRPLTASQTVKTFSQNRPAAARTFQQIRCYSAPVAAEPFLSGTSSNYVEEMYCAWLENPKSVHKSWDIFFRNTNAGAPPGTAYQSPLPLSRGSLAAVAHAQSLVEAQPNVDKLVEDHLAVQSLIRAYQIRGHHVAQLDPLGILDADLDSSVPADIISSTDKLGFYGLDESDLDKVFHLPTTTFIGGQESALPLREIIRRLEMAYCQHIGVEFMFINDLEQCQWIRQKFETPGIMQFTNEEKRTLLARLVRSTRFEEFLQRKWSSEKRFGLEGCEVLIPALKTIIDKSSENGVDYVIMGMPHRGRLNVLANVIRKELEQIFCQFDSKLEAADEGSGDVKYHLGMYHRRINRVTDRNITLSLVANPSHLEAADPVVMGKTKAEQFYCGDTEGKKVMSILLHGDAAFAGQGIVYETFHLSDLPSYTTHGTVHVVVNNQIGFTTDPRMARSSPYPTDVARVVNAPIFHVNSDDPEAVMYVCKVAAEWRSTFHKDVVVDLVCYRRNGHNEMDEPMFTQPLMYKQIRKQKPVLQKYAELLVSQGVVNQPEYEEEISKYDKICEEAFARSKDEKILHIKHWLDSPWPGFFTLDGQPRSMSCPSTGLTEDILTHIGNVASSVPVENFTIHGGLSRILKTRGEMVKNRTVDWALAEYMAFGSLLKEGIHIRLSGQDVERGTFSHRHHVLHDQNVDKRTCIPMNHLWPNQAPYTVCNSSLSEYGVLGFELGFAMASPNALVLWEAQFGDFHNTAQCIIDQFICPGQAKWVRQNGIVLLLPHGMEGMGPEHSSARPERFLQMCNDDPDVLPDLKEANFDINQLYDCNWVVVNCSTPGNFFHVLRRQILLPFRKPLIIFTPKSLLRHPEARSSFDEMLPGTHFQRVIPEDGPAAQNPENVKRLLFCTGKVYYDLTRERKARDMVGQVAITRIEQLSPFPFDLLLKEVQKYPNAELAWCQEEHKNQGYYDYVKPRLRTTISRAKPVWYAGRDPAAAPATGNKKTHLTELQRLLDTAFDLDVFKNFS [OGDH] | 0.0621 | 52 | 51.7 | -0.178 | -0.752 | -1.63
4 | MFIKGRAPRAPPRERRRATRGGLRQVVAPPRALGSTSRPHFRRASVCRRRCRKSGGLLAASRKMAAAAVNGAAGFSSSGPAATSGAVLQAATGMYEQLKGEWNRKSPNLSKCGEELGRLKLVLLELNFLPTTGTKLTKQQLILARDILEIGAQWSILRKDIPSFERYMAQLKCYYFDYKEQLPESAYMHQLLGLNLLFLLSQNRVAEFHTELERLPAKDIQTNVYIKHPVSLEQYLMEGSYNKVFLAKGNIPAESYTFFIDILLDTIRDEIAGCIEKAYEKILFTEATRILFFNTPKKMTDYAKKRGWVLGPNNYYSFASQQQKPEDTTIPSTELAKQVIEYARQLEMIV [PSMD8] | 0.278 | 53.4 | 54.5 | 0.0108 | -1.02 | -0.0502
5 | MFKVIQRSVGPASLSLLTFKVYAAPKKDSPPKNSVKVDELSLYSVPEGQSKYVEEARSQLEESISQLRHYCEPYTTWCQETYSQTKPKMQSLVQWGLDSYDYLQNAPPGFFPRLGVIGFAGLIGLLLARGSKIKKLVYPPGFMGLAASLYYPQQAIVFAQVSGERLYDWGLRGYIVIEDLWKENFQKPGNVKNSPGTK [APOO] | 0.444 | 54.8 | 56 | 0.185 | -1.86 | -2.5
